Laboratory results from paper PMC5889866.
pKd: −log10 of the molar value.

What was measured:
[1] = target: minicollagen peptide H-Gly-Pro-Arg-Gly-(Pro-Hyp-Gly)12-NH2; assay: SPR; […] (BIACORE); […]; 10 mM sodium HEPES pH 7.4, 150 mM NaCl, 1 mM CaCl2, 0.005% Tween-20; 20 ul/min; 25 C; […]
[2] = target: minicollagen peptide H-Gly-Pro-Arg-Gly-(Pro-Hyp-Gly)12-NH2; assay: SPR; minicollagen peptide amine-coupled on a CM5 chip (BIACORE); collagen anchors as analyte, eight concentrations 100 nM-300 uM; 10 mM sodium HEPES pH 7.4, 150 mM NaCl, 1 mM CaCl2, 0.005% Tween-20; 20 ul/min; 25 C; equilibrium responses fitted; apparent KD

Substance: CBD (s3) of Clostridium histolyticum class II collagenase ColH (domain or fragment)
- pKd [1]: 3.12

Substance: CBD (s3b) of Clostridium histolyticum class I collagenase ColG (domain or fragment)
- pKd [2]: 4.34

Substance: PKD-CBD (s2b-s3) of Clostridium histolyticum class II collagenase ColH (domain or fragment)
- pKd [1]: 3.35

Substance: CBD-CBD (s3a-s3b) of Clostridium histolyticum class I collagenase ColG (domain or fragment)
- pKd [2]: 4.35
